From the supplement of paper PMC10724198

How the values were obtained:
[1] = tested on: Saccharomyces cerevisiae; assay: protein stability index of tFT-peptide fusion in deletion strain of DOA10 (PSI (0-1 scale)); higher = more stable (slower turnover)
Protocol: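 MPS profiling in S. cerevisiae of two library types built from selected 12-aa C-degron peptides (IN1, IN2, LN1, LN3, VN2, R1-R5, W1-W3, Atg1 and Rpa12 C-termini): saturation mutagenesis libraries and C-terminal +1 capping libraries (13 aa). Each peptide is fused to the C-terminus of a sfGFP-mCherry timer, after a GGGS linker. Cells are FACS-sorted into 8 mCherry/sfGFP bins and sequenced. PSI runs from 0 (unstable) to 1 (stable), measured once in wild type and in the das1Δ or doa10Δ background.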

[2] = tested on: Saccharomyces cerevisiae; assay: protein stability index of tFT-peptide fusion in wild type (PSI (0-1 scale)); higher = more stable (slower turnover); conditions: genetic background: wild type
[3] = tested on: Saccharomyces cerevisiae; assay: protein stability index of tFT-peptide fusion in deletion strain of DAS1 (PSI (0-1 scale)); higher = more stable (slower turnover)
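For protein stability index of tFT-peptide fusion in deletion strain of DAS1 in this document: PSI is a weighted mean of each variant's read distribution over the sorted stability bins, computed only for variants having over 10 reads in total.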
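For protein stability index of tFT-peptide fusion in deletion strain of DOA10 in this document: PSI per variant is the weighted mean of its sequencing read distribution over the sorted stability bins, counting only variants with over 10 reads summed across bins.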
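For protein stability index of tFT-peptide fusion in wild type in this document: PSI derived as read-weighted mean over the 8 sorting bins, only variants exceeding 10 total reads kept, mCherry placed adjacent to the peptide and sfGFP distal.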

| Sequence | protein stability index [1] | protein stability index [2] | protein stability index [3] |
| --- | --- | --- | --- |
| AITCPMCPLLLR | 0.643 | 0.297 |  |
| AITLCMCPLLLR | 0.665 | 0.487 |  |
| AITLDMCPLLLR | 0.68 | 0.346 |  |
| AITLMMCPLLLR | 0.612 | 0.302 |  |
| AITLPMCLLLLR | 0.629 | 0.116 |  |
| AITLPMCPLLLRA | 0.3 | 0.171 |  |
| AITLPMCPLLLRC | 0.381 | 0.0981 |  |
| AITLPMCPLLLRS | 0.554 | 0.261 |  |
| AITLPMCPLLLRT | 0.441 | 0.169 |  |
| AITLPMCPPLLR | 0.663 | 0.546 |  |
| AITLPMCRLLLR | 0.651 | 0.27 |  |
| AITLPMCSLLLR | 0.656 | 0.212 |  |
| AITLPMCTLLLR | 0.675 | 0.116 |  |
| AITLPMFPLLLR | 0.638 | 0.16 |  |
| AITLPMGPLLLR | 0.688 | 0.186 |  |
| AITLPMKPLLLR | 0.659 | 0.297 |  |
| AITLPVCPLLLR | 0.652 | 0.229 |  |
| AITLPWCPLLLR | 0.662 | 0.153 |  |
| AITLVMCPLLLR | 0.679 | 0.547 |  |
| AITMPMCPLLLR | 0.677 | 0.285 |  |
| AITTPMCPLLLR | 0.668 | 0.462 |  |
| AITWPMCPLLLR | 0.7 | 0.226 |  |

| Sequence | protein stability index [1] | protein stability index [2] | protein stability index [3] |
| --- | --- | --- | --- |
| AMTLPMCPLLLR | 0.646 | 0.223 |  |
| APTLPMCPLLLR | 0.664 | 0.29 |  |
| ASTLPMCPLLLR | 0.668 | 0.408 |  |
| AVTLPMCPLLLR | 0.648 | 0.261 |  |
| CLDSLPILLFFR | 0.664 | 0.214 |  |
| CLNSLPILLFFR | 0.627 | 0.109 |  |
| CLVELPILLFFR | 0.625 | 0.0526 |  |
| CLVSLDILLFFR | 0.355 | 0.265 |  |
| CLVSLPFLLFFR | 0.618 | 0.0627 |  |
| CLVSLPIALFFR | 0.631 | 0.0824 |  |
| CLVSLPILDFFR | 0.678 | 0.638 |  |
| CLVSLPILLFFF | 0.42 | 0.304 |  |
| CLVSLPILLFFRA | 0.475 | 0.0659 |  |
| CLVSLPILLFFRF | 0.483 | 0.0553 |  |
| CLVSLPILLFFRL | 0.512 | 0.0549 |  |
| CLVSLPILLFFT | 0.528 | 0.248 |  |
| CLVSLPILLFPR | 0.654 | 0.628 |  |
| CLVSLPILLGFR | 0.653 | 0.391 |  |
| CLVSLPILNFFR | 0.66 | 0.637 |  |
| CLVSLWILLFFR | 0.365 | 0.149 |  |
| CLVSLYILLFFR | 0.347 | 0.174 |  |
| CLYSLPILLFFR | 0.586 | 0.0509 |  |

| Sequence | protein stability index [1] | protein stability index [2] | protein stability index [3] |
| --- | --- | --- | --- |
| DLVSLPILLFFR | 0.637 | 0.109 |  |
| DVTRLDAIYFRI | 0.739 | 0.481 |  |
| GFYMCSVGCWFR | 0.632 | 0.204 |  |
| GLHMCSVGCWFR | 0.682 | 0.214 |  |
| GLRMCSVGCWFR | 0.676 | 0.248 |  |
| GLVSLPILLFFR | 0.608 | 0.0632 |  |
| GLYMCHVGCWFR | 0.629 | 0.279 |  |
| GLYMCLVGCWFR | 0.406 | 0.254 |  |
| RSLAASFWRVVG |  | 0.117 | 0.689 |
| TKILRQKMNHQN |  | 0.148 | 0.67 |
| TVVYLSCVACIN |  | 0.0176 | 0.0307 |
| VDKRNHLIKLLN |  | 0.105 | 0.609 |
| VKGAVGGWRLVG |  | 0.149 | 0.691 |
| VQGAVGGWRLVG |  | 0.14 | 0.708 |
| VRAAVGGWRLVG |  | 0.14 | 0.681 |
| VREAVGGWRLVG |  | 0.143 | 0.676 |
| VRGAIGGWRLVG |  | 0.157 | 0.684 |
| VRGAVGCWRLVG |  | 0.162 | 0.69 |
| VRGAVGGDRLVG |  | 0.609 | 0.68 |
| VRGAVGGNRLVG |  | 0.681 | 0.67 |
| VRGAVGGPRLVG |  | 0.661 | 0.669 |
| VRGAVGGWHLVG |  | 0.286 | 0.671 |

| Sequence | protein stability index [1] | protein stability index [2] | protein stability index [3] |
| --- | --- | --- | --- |
| VRGAVGGWRDVG |  | 0.606 | 0.629 |
| VRGAVGGWRKVG |  | 0.133 | 0.68 |
| VRGAVGGWRLKG |  | 0.607 | 0.673 |
| VRGAVGGWRLVF |  | 0.564 | 0.677 |
| VRGAVGGWRLVGK |  | 0.651 | 0.667 |
| VRGAVGGWRLVGP |  | 0.664 | 0.671 |
| VRGAVGGWRLVGV |  | 0.649 | 0.659 |
| VRGAVGGWRLVV |  | 0.16 | 0.675 |
| VRGAVGGWRMVG |  | 0.155 | 0.685 |
| VRGAVGGWRTVG |  | 0.157 | 0.674 |
| VRGAVGPWRLVG |  | 0.138 | 0.687 |
| VRGAVGRWRLVG |  | 0.159 | 0.669 |
| VRGAVGTWRLVG |  | 0.171 | 0.694 |
| VRGAVLGWRLVG |  | 0.146 | 0.677 |
| VRGAVWGWRLVG |  | 0.108 | 0.649 |
| VRGMVGGWRLVG |  | 0.161 | 0.683 |
| VRGTVGGWRLVG |  | 0.151 | 0.705 |
| VRVAVGGWRLVG |  | 0.111 | 0.652 |
| VWGAVGGWRLVG |  | 0.134 | 0.692 |
| WKHKKGQKQKIN |  | 0.135 | 0.546 |
| WSMRWTFRYWVN |  | 0.0469 | 0.48 |
